Data as given in paper PMC7251214.

Target: MtrD multidrug efflux pump from N. gonorrhoeae strain CR.103 (MtrD_(CR103)) (Neisseria gonorrhoeae) (UniProt Q51073)
Assay: cryo-EM structure; single-particle cryo-EM of purified MtrD_(CR103) in lipid nanodiscs (MSP 1E3D1), 2 uM, 20 mM Tris-HCl pH 7.5, 100 mM NaCl; one structure with fortuitously bound hydrolyzed ampicillin, one after incubation with 10 uM erythromycin for 2 h; C1 symmetry

Substance: MtrD multidrug efflux pump from N. gonorrhoeae strain CR.103 (MtrD_(CR103)) (from UniProt Q51073 1-1067) (natural protein)
- stoichiometry N: 3
